B1: Parkin domain R0RBR (residues 141-465) (domain or fragment, human, UniProt O60260-1 141-465, looked up)
chain: SIYNSFYVYCKGPCQRVQPGKLRVQCSTCRQATLTLTQGPSCWDDVLIPNRMSGECQSPHCPGTSAEFFFKCGAHPTSDKETSVALHLIATNSRNITCITCTDVRSPVLVFQCNSRHVICLDCFHLYCVTRLNDRQFVHDPQLGYSLPCVAGCPNSLIKELHHFRILGEEQYNRYQQYGAEECVLQMGGVLCPRPGCGAGLLPEPDQRKVTCEGGNGLGCGFAFCRECKEAYHEGECSAVFEASGTTTQAYRVDERAAEQARWEAASKETIKKTTKPCPRCHVPVEKNGGCMHMKCPQPQCRLEWCWNCGCEWNRVCMGDHWFDV
notes: Parkin residues 141-465 (NM_004562.1), R0, R1, IBR and R2 domains; Cloned into the Champion pET SUMO vector; The Sumo tag was removed with SENP1, and the protein is called untagged in the SPR methods; also called R0RBR Domain; source: E. coli BL21 DE3, purified (Ni sepharose, Mono Q, SENP1 cleavage, Superdex 200)
B2: His-tagged ubiquitin-like domain of Parkin (UblD, residues 1-76) (domain or fragment, human, UniProt O60260-1 1-76, looked up)
chain: MIVFVRFNSSHGFPVEVDSDTSIFQLKEVVAKRQGVPADQLRVIFAGKELRNDWTVQNCDLDQQSIVHIVQRPWRK
notes: Parkin residues 1-76 (NM_004562.1), ubiquitin-like domain; also called His-UblD; source: E. coli BL21 DE3, purified (nickel sepharose, dialysed for Biacore); not shown: His6, C-terminal, kept

Experiments:
Assay in all cases: SPR; untagged R0RBR immobilised by amine coupling (10 mM acetic acid pH 5.0) on a CM5 chip; protein ligands injected; 25°C; 10 mM HEPES pH 7.4, 150 mM NaCl, 0.005% Tween-20, 4 mM reducing agent; 1:1 binding model
Conditions in all cases: both partners purified
[1] = target: T1, UbcH7, E2 ubiquitin conjugating enzyme (UBE2L3 residues 1-154) (human, UniProt P68036-1 1-154)
T1 construct: UBE2L3 (UbcH7) residues 1-154 from NM_003347.2; UbcH7 was also bought from Boston Biochem. TEV cleavage probably leaves SS at the N-terminus (surmised); also called E2 UbcH7; source: E. coli BL21 DE3, purified (nickel sepharose, TEV cleavage, Superdex 200); not shown: His8, N-terminal, cleaved
T1 sequence (P68036 whole entry, the tested form may be a part): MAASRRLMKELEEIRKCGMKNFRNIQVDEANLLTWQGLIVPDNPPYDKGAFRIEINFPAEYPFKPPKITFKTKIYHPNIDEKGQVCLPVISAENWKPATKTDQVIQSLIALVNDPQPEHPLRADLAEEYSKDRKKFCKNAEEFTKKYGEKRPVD

Ubiquitin = target: T2, Ubiquitin (UniProt P0CG47 1-76)
T2 construct: ubiquitin, the cut product of a polyubiquitin or fusion precursor; neither species nor construct is stated; also called Ubq; source: bought: Boston Biochem

[2] = target: B1

B1
Kd [1]: 7.1 µM
Kd (Ubiquitin): 96 µM

B2
Kd [2]: 6 µM
